The target of this data set is T1, WOX11 (rice, UniProt Q0D3I7 1-262).
T1 sequence: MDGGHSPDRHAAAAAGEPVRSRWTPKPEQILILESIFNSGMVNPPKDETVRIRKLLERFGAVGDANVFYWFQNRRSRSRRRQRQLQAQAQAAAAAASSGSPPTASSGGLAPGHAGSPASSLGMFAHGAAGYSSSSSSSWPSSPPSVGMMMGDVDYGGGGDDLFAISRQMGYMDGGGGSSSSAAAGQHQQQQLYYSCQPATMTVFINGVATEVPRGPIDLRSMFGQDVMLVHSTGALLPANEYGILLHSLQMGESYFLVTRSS
Kind of data set: EMSA.

B1: PRX111-P2 (dsDNA)
DNA 1: TTCACTTAGCTTAATGCTGCTGGTGGC
DNA 2: GCCACCAGCAGCATTAAGCTAAGTGAA
Turning to B1, the binding result was “binds”.

These data come from PMC10248720.
